We go through one substance from patent US11130780B2, “Inhibitors of growth factor activation enzymes” (Washington University, priority 2015, dated 2021).

The subject of the data set is T1, Cc1cc(=O)oc2cc(NC(=O)[C@H](CCCNC(=N)N)NC(=O)[C@H](C)NC(=O)[C@H](CCC(N)=O)NC(=O)OC(C)(C)C)ccc12.
T1 construct: purchased R&D Systems 4776-SE-010
Kind of data set: Km determination of fluorogenic substrate with hepsin. It is filed as biochemical, human. On the procedure:
In black 384 well plates (Corning #3575), 12.5 nM HGFA was mixed with various amounts of Boc-QLR-AMC and 1 nM matriptase and 0.3 nM hepsin were mixed with various amounts of Boc-QAR-AMC. Changes in fluorescence (excitation at 380 nm and emission at 460 nn) were measured at room temperature over time in a Biotek Synergy 2 plate reader (Winnoski, Vt.). Using plots of the mean reaction velocity versus substrate concentration and the Michaelis-Menten enzyme kinetics equation within GraphPad Prism version 6.04 for Windows (GraphPad Software, San Diego, Calif., www.graphpad.com), the reaction Vmax and subsequent Km for each of the substrates were determined.

hepsin (Homo sapiens), sequence (chain, as listed by the source): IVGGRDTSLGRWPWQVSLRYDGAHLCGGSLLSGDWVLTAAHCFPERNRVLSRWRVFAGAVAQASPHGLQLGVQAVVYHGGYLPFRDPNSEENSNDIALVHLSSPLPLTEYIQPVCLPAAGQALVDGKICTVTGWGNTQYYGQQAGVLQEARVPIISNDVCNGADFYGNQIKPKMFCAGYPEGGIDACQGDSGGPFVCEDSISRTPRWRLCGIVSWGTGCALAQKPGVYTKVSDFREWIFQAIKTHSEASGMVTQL

As for hepsin (Homo sapiens), the Michaelis-Menten constant (Km) worked out at 156 µM.

A word on the Km: it is the substrate concentration at which the rate is half of its maximum.
